From PMC8864220, “Transcriptional Regulation of the Creatine Utilization Genes of Corynebacterium glutamicum ATCC 14067 by AmtR, a Central Nitrogen Regulator”

B1: PcreT-1 (oligos PcrnT-1-S/A) (dsDNA)
DNA 1: ACCACCAATGAAACCTATCGGTCTATAGAAATTGACATTGCT
DNA 2: AGCAATGTCAATTTCTATAGACCGATAGGTTTCATTGGTGGT
B2: PhyuB-1 (dsDNA)
DNA 1: TTGAAAACTTTTCGATAGAGCAATAGAAATTTCCCAGCCCAA
DNA 2: TTGGGCTGGGAAATTTCTATTGCTCTATCGAAAAGTTTTCAA
B3: PhyuB-2 (dsDNA)
DNA 1: CCCGGGGTGATTTTCTATCGTGTGATAGGTTTAATTCTGTTG
DNA 2: CAACAGAATTAAACCTATCACACGATAGAAAATCACCCCGGG
B4: PcreT-2 (oligos PcrnT-2-S/A) (dsDNA)
DNA 1: ATTTATATTCTTTTCTATCACCCTATAGAAACATATTGGACG
DNA 2: CGTCCAATATGTTTCTATAGGGTGATAGAAAAGAATATAAAT

What follows are binders tested against T1, AmtR (Corynebacterium glutamicum ATCC 14067, UniProt H7C699 1-222) (assay: EMSA; EMSA, 20 ul: 10 mM Tris pH 7.0, 50 mM KCl, 1 mM DTT, 5 mM MgCl (so in the source), 10 mM EDTA, 2.5% glycerol, 0.05% NP-40, 50 ng/ul poly(dIdC); 100 ng DNA, 0-0.8 ug AmtR; 6% native PAGE, 0.5x TBE, GelRed; temperature not stated). Details: protein: recombinant; tags: C-terminal His6; chain copies: 2; blunt.
T1 sequence: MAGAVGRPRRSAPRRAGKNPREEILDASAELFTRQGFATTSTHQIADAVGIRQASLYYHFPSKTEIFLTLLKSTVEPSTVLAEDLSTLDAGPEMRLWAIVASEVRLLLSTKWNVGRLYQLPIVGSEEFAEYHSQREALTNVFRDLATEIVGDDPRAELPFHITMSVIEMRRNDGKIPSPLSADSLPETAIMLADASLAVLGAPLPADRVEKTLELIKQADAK
B1: binds.
B2: binds.
B3: binds.
B4: binds.
